Experimental data as given in US10500249B2, “Compositions and methods for preventing or treating diseases, conditions, or processes characterized by aberrant fibroblast proliferation and extracellular matrix deposition” (MOERAE MATRIX, INC., priority 2014, dated 2019).

Tests used:
Experiment in all cases: Kinase Profiling Assay
Assay type in all cases: biochemical
Conditions in all cases: 100 μM
TBK1 (h) = target: T1, TBK1 (h) (Homo sapiens, UniProt Q9UHD2)
T1 sequence (Q9UHD2 1-729): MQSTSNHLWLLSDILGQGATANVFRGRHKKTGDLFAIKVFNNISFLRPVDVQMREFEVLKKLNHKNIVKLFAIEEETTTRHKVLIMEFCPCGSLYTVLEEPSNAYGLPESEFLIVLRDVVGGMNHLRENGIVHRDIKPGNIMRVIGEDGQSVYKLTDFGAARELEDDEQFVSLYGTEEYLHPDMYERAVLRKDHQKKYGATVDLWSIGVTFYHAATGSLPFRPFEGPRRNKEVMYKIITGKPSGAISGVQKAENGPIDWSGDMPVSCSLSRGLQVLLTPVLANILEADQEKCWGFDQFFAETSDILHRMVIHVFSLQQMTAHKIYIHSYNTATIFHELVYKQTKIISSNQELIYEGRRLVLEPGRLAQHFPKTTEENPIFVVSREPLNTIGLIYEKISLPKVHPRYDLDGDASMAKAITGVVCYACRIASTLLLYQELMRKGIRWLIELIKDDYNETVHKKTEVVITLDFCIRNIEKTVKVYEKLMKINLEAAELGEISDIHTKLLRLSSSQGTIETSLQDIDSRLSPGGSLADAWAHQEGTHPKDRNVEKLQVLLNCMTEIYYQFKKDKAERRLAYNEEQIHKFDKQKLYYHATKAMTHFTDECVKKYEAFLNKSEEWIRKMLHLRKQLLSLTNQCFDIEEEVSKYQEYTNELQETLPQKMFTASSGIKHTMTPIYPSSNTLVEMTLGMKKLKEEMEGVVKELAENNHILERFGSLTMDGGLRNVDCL
Outline: (§1)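 Activity remaining relative to an uninhibited control was determined by scintillation counting of labeled substrate bound to a negatively charged filter. Radiolabeled phosphate came from ATP; the substrate carried positive charge. Duplicate measurements, within a 266-kinase human panel.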

DAPK1 (h) = target: T2, DAPK1 (h) (Homo sapiens, UniProt P53355)
T2 construct: purchased Millipore
Outline: as §1

ROCK-II (h) = ROCK-II (h) (Homo sapiens, UniProt O75116)
Outline: as §1

Rsk2 (h) = Rsk2 (h) (Homo sapiens, UniProt P51812)
Outline: as §1

PKCτ (h) = target: T3, PKCτ (h) (Homo sapiens, UniProt P41743)
T3 sequence (P41743 1-596): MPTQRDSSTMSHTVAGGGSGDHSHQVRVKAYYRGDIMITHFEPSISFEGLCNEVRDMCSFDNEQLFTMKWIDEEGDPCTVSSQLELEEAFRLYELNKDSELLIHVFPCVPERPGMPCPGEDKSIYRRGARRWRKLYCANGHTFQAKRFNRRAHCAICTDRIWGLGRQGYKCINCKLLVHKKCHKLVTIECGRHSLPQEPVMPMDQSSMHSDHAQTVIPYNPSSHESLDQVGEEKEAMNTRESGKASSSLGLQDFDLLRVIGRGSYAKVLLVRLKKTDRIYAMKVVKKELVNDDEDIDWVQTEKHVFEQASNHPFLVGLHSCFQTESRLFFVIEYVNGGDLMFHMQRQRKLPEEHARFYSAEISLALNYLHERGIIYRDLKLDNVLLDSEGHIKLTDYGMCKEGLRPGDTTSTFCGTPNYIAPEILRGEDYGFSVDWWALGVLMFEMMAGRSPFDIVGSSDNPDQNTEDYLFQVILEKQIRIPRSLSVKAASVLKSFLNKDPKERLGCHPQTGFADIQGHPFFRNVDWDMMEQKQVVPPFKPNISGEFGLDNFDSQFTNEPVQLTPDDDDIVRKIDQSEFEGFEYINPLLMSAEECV
Outline: as §1

NEK2 (h) = target: T4, NEK2 (h) (Homo sapiens, UniProt P51955)
T4 construct: purchased Millipore
T4 sequence (P51955 1-445): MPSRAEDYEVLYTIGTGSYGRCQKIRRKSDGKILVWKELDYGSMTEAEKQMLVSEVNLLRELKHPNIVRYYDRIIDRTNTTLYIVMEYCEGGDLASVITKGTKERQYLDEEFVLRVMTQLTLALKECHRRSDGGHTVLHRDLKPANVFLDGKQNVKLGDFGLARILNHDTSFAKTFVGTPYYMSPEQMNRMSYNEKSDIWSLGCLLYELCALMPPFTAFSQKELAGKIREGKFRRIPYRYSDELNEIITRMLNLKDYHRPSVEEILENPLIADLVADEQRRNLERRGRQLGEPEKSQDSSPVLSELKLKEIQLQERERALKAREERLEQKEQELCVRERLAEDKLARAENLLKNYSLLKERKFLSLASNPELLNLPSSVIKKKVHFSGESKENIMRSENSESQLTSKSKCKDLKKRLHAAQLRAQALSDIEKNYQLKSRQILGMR
Outline: as §1

PRK2 (h) = PRK2 (h) (Homo sapiens, UniProt Q16513)
Outline: as §1

T2 sequence (P53355 whole entry): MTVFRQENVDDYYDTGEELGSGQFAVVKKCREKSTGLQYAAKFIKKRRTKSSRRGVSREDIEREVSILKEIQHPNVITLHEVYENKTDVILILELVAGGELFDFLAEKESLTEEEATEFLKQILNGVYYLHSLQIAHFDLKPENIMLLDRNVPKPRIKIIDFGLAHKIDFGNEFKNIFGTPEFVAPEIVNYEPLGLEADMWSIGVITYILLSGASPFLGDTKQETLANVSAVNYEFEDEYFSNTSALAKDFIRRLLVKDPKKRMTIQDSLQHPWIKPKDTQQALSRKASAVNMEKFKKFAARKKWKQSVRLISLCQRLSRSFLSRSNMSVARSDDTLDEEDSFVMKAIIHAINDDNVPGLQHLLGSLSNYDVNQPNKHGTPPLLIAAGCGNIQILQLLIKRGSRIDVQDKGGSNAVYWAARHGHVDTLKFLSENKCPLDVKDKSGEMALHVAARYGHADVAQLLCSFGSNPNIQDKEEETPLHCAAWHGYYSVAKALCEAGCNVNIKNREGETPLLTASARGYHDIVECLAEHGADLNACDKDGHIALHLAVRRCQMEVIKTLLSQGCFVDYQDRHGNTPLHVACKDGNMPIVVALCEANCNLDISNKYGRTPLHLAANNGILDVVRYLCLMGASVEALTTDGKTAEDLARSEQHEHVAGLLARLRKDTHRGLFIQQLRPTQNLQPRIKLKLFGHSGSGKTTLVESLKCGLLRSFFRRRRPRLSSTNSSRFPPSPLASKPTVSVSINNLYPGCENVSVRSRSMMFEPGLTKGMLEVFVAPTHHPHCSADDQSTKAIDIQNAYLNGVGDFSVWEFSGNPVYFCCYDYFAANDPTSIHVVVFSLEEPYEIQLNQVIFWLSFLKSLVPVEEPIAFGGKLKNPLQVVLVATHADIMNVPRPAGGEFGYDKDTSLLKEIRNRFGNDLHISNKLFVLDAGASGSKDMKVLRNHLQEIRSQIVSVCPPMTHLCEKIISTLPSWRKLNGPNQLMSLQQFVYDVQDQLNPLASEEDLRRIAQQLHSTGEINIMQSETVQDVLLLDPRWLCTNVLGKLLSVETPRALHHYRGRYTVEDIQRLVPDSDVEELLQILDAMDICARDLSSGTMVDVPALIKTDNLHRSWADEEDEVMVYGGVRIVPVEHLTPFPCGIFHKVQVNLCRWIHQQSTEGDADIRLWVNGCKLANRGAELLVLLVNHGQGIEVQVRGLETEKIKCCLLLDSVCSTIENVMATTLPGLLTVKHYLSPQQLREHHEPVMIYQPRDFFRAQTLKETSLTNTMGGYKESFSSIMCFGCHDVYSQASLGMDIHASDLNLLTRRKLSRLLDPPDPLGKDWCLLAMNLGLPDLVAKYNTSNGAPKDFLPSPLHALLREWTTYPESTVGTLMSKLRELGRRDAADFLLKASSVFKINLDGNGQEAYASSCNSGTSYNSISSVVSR
Sequence of PRK2 (h) (Q16513 whole entry): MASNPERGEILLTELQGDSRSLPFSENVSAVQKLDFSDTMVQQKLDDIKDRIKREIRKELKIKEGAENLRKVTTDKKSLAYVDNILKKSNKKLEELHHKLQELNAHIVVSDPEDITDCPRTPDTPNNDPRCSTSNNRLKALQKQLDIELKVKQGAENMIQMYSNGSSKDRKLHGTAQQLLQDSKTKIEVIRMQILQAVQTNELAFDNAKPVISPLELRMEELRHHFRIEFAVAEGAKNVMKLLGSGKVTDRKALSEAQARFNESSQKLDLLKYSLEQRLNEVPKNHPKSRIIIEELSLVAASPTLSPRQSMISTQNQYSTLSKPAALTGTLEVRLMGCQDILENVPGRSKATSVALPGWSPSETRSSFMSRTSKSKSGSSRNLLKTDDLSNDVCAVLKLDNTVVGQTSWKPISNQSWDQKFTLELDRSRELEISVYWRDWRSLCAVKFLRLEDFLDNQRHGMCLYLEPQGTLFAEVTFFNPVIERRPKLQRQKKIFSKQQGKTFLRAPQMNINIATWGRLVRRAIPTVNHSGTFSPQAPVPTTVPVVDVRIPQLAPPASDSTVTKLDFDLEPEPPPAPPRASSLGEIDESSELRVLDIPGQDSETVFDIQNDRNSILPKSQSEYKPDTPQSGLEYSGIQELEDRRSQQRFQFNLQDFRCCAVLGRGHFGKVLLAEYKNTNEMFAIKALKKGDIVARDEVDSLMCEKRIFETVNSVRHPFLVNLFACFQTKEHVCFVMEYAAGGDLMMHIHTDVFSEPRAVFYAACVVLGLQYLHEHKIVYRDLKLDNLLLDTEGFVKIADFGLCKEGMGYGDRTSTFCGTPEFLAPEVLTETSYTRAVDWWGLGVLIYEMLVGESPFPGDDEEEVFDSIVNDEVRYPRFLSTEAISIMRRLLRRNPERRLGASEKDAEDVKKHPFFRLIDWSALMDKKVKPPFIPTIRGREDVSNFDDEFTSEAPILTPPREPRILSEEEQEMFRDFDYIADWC
Sequence of Rsk2 (h) (P51812 whole entry): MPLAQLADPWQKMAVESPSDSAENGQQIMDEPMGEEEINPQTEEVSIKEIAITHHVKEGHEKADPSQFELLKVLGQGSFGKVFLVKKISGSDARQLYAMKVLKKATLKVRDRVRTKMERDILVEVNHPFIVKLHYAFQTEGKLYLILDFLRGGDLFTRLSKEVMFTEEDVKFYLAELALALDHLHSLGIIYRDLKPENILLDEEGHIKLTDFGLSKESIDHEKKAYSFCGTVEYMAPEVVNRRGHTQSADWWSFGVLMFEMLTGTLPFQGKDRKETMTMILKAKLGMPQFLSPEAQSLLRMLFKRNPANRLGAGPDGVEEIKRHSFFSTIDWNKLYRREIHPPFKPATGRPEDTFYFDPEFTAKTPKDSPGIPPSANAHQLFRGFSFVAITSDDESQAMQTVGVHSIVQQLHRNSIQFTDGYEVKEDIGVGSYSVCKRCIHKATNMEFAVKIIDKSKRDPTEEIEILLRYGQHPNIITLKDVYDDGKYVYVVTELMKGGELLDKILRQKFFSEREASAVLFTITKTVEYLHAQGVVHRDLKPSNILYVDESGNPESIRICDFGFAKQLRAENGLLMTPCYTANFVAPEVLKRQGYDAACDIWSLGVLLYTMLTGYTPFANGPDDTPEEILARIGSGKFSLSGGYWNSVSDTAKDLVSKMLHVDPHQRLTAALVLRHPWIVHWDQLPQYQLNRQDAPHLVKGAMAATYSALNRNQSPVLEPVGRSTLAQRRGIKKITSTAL
Sequence of ROCK-II (h) (O75116 whole entry): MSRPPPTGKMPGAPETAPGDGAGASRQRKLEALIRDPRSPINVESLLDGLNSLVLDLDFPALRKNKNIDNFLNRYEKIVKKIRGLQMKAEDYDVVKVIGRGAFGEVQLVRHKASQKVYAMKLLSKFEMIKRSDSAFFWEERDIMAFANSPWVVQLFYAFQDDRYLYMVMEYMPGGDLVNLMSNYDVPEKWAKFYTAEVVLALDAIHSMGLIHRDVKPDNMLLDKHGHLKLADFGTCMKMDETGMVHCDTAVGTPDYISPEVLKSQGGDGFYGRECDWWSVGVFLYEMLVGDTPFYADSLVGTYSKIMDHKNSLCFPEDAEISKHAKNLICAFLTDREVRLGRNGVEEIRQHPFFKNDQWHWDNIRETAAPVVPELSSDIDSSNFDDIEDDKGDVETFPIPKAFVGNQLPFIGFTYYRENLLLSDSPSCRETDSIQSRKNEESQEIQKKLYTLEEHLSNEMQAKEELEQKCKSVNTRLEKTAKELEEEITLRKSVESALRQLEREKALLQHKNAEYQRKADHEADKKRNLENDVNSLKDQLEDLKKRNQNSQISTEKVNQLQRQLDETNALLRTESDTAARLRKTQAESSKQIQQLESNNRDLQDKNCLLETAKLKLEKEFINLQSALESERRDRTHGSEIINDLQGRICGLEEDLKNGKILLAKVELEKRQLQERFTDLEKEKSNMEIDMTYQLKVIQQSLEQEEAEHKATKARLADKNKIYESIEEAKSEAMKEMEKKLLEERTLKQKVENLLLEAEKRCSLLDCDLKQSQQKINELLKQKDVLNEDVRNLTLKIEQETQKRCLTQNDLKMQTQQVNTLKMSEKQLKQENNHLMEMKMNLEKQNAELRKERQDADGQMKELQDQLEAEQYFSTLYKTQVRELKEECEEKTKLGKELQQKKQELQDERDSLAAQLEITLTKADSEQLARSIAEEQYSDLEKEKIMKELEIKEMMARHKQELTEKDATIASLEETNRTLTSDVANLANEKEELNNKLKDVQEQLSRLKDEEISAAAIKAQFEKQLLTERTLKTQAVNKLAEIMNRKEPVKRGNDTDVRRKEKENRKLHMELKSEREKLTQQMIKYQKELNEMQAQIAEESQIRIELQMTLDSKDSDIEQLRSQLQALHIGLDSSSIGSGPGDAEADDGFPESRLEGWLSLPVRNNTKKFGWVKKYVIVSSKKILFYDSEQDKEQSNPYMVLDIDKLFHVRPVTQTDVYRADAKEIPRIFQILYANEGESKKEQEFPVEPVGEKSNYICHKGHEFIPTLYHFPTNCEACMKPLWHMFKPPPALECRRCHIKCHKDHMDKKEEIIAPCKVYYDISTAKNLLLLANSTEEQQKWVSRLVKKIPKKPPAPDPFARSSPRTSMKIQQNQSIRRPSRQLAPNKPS

Sequence	% activity (TBK1 (h))	% activity (DAPK1 (h))	% activity (ROCK-II (h))	% activity (Rsk2 (h))	% activity (PKCτ (h))	% activity (NEK2 (h))	% activity (PRK2 (h))
FAKLAARLYRKALARQLGVAA [MMI-0300]	37%	46%	74%	51%	68%	78%	33%
HRRIKAWLKKIKALARQLGVAA (Mammalian) [MMI-0500]	16%	0%	2%	14%	7%	0%	7%
KAFAKLAARLYRKALARQLGVAA [MMI-0400]	39%	36%	77%	38%	46%	61%	27%
YARAAARQARAKALNRQLGVA (Mammalian) [MMI-0200]	98%		85%	101%	97%	97%	74%
